Here are results for three molecules from article PMC4352251, “The VieB auxiliary protein negatively regulates the VieSA signal transduction system in Vibrio cholerae” (BMC Microbiology, 2015).

What is called stoichiometry N is a count of units in the complex or per binding partner. In general, Kd refers to the concentration at which binding is half-saturated.

Data set [1] addresses VieS-C (untagged cytoplasmic portion of the sensor kinase VieS) (UniProt O68317). In words: SEC-MALS; Superose12 10/300 GL in Gel Filtration Buffer (25 mM Tris pH 7.5, 100 mM KCl, 1 mM DTT, 5% glycerol); column at 4°C, light scattering at 25°C; self-association of each protein. A general note: In gel filtration, larger molecules generally elute earlier.
The target is the same in data set [2]. In words: composition-gradient MALS (CG-MALS).
Data set [3] concerns the molecule itself. In words: SEC-MALS; Superose12 10/300 GL in Gel Filtration Buffer (25 mM Tris pH 7.5, 100 mM KCl, 1 mM DTT, 5% glycerol); column at 4°C, light scattering at 25°C; self-association of each protein.

Molecule “VieS-C (untagged cytoplasmic portion of the sensor kinase VieS) (from UniProt O68317 1-1146) (domain or fragment)” had a stoichiometry N in data set [1] of 2.

B1: VieB (wild type, His6 tag removed) (natural protein)
chain: MAVPTFAELKVLIIDDAPIVIASLRSMLLKLGFTDPNIVWSKSPRAAVFMAGRQRFDIFICDYNFGKGLNGKQVFEELKHYKLIKQDAVFVLVTGENSAYVVHSILELKPDEYILKPFNIMTLQERLTNAISRKHALKALYQAERDGDAELGLSLCDELEPFYNDYYFVIQKFRGEFLTQLRRFDHAREVYLETLEHKDFDWAKIGLANALKQTGRQVEATQVIQELLASAPNNVRARVEAASISLCNNSIPEAIHHLQVANQIVPGHSEREWVLANLCLSVGDGASALERYRLYVEINKETYRNNHQMHLNFIRTLLYAARQAESEQRDLWVQEAKSILKGLYDKGQHEDLLAQLELVAAHLAMEEGEFGVSVEILNKIYRAKPFELFEDRYHFTWLLNVMGFDSEFAKCISWCNGTLLNQETDIVLESKVALAKALKEANQEKLQWLEQRYHALCNKQQTIDSLLAIYIEILEKCPTLRTVCMKVVTIFSRYWPTALTESEAERLLKSCHRTIRQLMNEEELQQAQYAELYRKALTFRSRYRLQRTESVEA
Regarding B1, in data set [2], the Kd was 467 nM and the stoichiometry N (VieB monomer per VieS-C dimer) is 1.

B2: VieA-His6 (response regulator VieA) (natural protein)
chain: MKIMIVEDDRIQATSLKLKLRQLGLDDVILAENGFAALELCNKVGIDLMFCDIRMPQMDGISLLSQLSLQAPKLGVVILSAVEDTILELTHNMCSLAGFAYVDRLPKPYEVEDLQRVVEGFQKQTEPETSHKPAITLTCDEIEQAFLHDHIFNYYQPQFDFRSGAMVGVEALVRYEHPTHGMLSPAVFLPLIEQCGLHEKLFLTVLEKSVSALASIGADLQLSVNISQRNLQHSICDPILAICERYGFPASKLTLEMTEHEVYNGTPTSLANLARLRMYGVGLSIDDFGTGYASLGQLAQLPFTELKIDRSFVHDLATNYKHQQLTNMCLLLAQSLGLHCVVEGVENEETWQYLRQLGVDTCQGYYAAKPMPIAQLSELYTKNRRQCLGCQSMDDGWQILLVDNHMLSATALQKVLNKEENVSKVFVAQDIEQTLHKLRDLPINLLVVESRFLSTISPAAFHELLEPYYRGALLVLHDGLTAEAQEDEPKAIVVKANTLMETSSRILLQAQQSNVRPQAQQEELAQLSERELTVAKMLVEGLTNKEIALQLDINQKTVSTYKTRIMTKLGIKSAMELVRFVTLK
notes: not shown: His6, C-terminal, kept
Regarding B2, the “stoichiometry N” value in data set [3] is 2. For the same molecule, in data set [2], the Kd was determined as 1380 nM and the stoichiometry N (VieA-His6 dimer per VieS-C dimer) came out at 1.
